16 sequences from the DeepSol protein solubility set can be followed below.

This series is described as follows: soluble on expression in E. coli; label from the status in PepcDB or PDB records.
Take “MGSDKIHHHHHHMTTLALTGDSILQRRLLSTSDPVIKPLFDLIRGCDAAFTNLEVLPNDYRGDPAFDSGGSHFGAPSWVLDDLVEAGFGMFSTATNHTLDYSISGLEYGLDQLDKRGLCHAGAGRHLEEARRAAYLTTPNAAIGMVACGSTYTKGQEAARQTAAMQGRPGLNPLWPDSTYEVTAEQMAVVKEMAEGLGLEKFRQIRISTGFAFEAPEGIFPFNGMNFRVGEQTRHVRHPNPKDLAAIIRWVEEAKLASDIALVSIHAHEHADEKDQPADFIVEFAHAVIDAGADLVVGHGPHLLRGMEIYKGKPIFYSLGNFIGQNEMVRQLPGESYDRFHVDDRLTPTQLYKQRTLDDQKGFPSDERYWQTVVPICHFEGDGLVDVEIHPVSLGLGEQRHRRGRPRLAHGAEAESILNRFSSLSYEFGSTLEVGDTCANAVL”: the “soluble on expression in E. coli” value is “not soluble”.

For “MGSDKIHHHHHHMERLFESFIKKLAITNTSFVRSLMNEIEWEARLIGIKGARGVGKTTLLLQYIKLNLPMDKTVLYASVDNIWFSEHKLYDLASDFVKRGGKYLFLDEVHKYPNWSQELKNIYDDLPELHVVFTGSSLLEILNAKSDLSRRAIVYEMQGFSFREYLNWNEKLSLPILTLNNILDNHLALSVGIVDKVKVLKHFSDYLKHGYYPYYNELPSLYYSRINEVVNLIVELEIPQLRGVDISYTTKIKQLLYIIAESAPFIPNVSKLSERIGISRNSLLAYLDALHDSCLTMNLQKEGSGISRLQKPDKLFLENPNLMYALSASQIDIGNVRETFFANQLRYCHKINVSKESDFFIDGRYTFEVGGRHKGKQQINGLSDAYIVADDIEYGINNKIPLWLFGFLY”, the “soluble on expression in E. coli” value was “not soluble”.

For “MNKFLFAAALIVSGLLVGCNQLTQYTITEQEINQSLAKHNNFSKDIGLPGVADAHIVLTNLTSQIGREEPNKVTLTGDANLDMNSLFGSQKATMKLKLKALPVFDKEKGAIFLKEMEVVDATVQPEKMQTVMQTLLPYLNQALRNYFNQQPAYVLREDGSQGEAMAKKLAKGIEVKPGEIVIPFTD”, the “soluble on expression in E. coli” value is reported as “not soluble”.

For “MGSDKIHHHHHHMTVVDDEKPAQAASGRFAAGEDPAKRDQILDGAKRAFMKHGFDAASMNDVTREAGVSKGTIYVYFQSKEDLFAALINNQKQKFAASMRDILAEETDLHMALRRYALAFTNYILTSEMIPAMRMLLAVQDRMPHLCQSFMRSGPENVRTVLEDYLEVQVKAGRLDIADTELAARQYIELATGAYFKKRLFGEIEVPPPQAEIDYIIDNALHIFLLAYDRKAENGPEAQRAN”, the “soluble on expression in E. coli” value is listed as “not soluble”.

For the sequence “MSLKGTPGNVPAARTGIEITPAHRAFFHALPKIELHCHLLGAVRHDTFVALAERSGAPIERAEIDAFYARGEKPVGVLHVLRALDRYLLTQPDDLRRIAYEYLEDAAAYNVRHAEFFWNPTGTVHVSGIAYADAQAAIVTGIRDAARDFGIGARLIPSIDREQDPDEAVAIVEWMKANRADEVAGLGIDYRENDRPPELFWKAYRNARAAGFRTTAHAGEFGMPWRNVETAVDLLQVDRVDHGYTIVDNPELCARYAERGIVFTVVPTNSYYLRTLPPEQWAERHPMRKMPGLGLKIHPNTDDPTLHKVNPSEAWELMFSHFGFTVAELKQFMLNGIDGAWVDDTTKAAWRAAWAPEFDVLAATLAAGEGHHHHHH”, the “soluble on expression in E. coli” value is recorded as “soluble”.

For “MTFQETISAYIQERYQITPDFPFKKHPDYLVFRHPRNAKWFALIMPLDAQLLGATENKQLTILTVKLAPELIALLKNQPGYFPAYHMNKEHWLSLSEEIPLSQVFSFIDESYQRSYLEHHHHHH”, the “soluble on expression in E. coli” value is recorded as “soluble”.

Consider “MAHHHHHHMANGVTANSMRVSVKAPDLGAFPLDHYRECKSEIEEYYTCLRSNDYVTPMCREQVRAYLQCRMDRGLMKPADIEGFGIPETEFVPMRQHRADIRQQWLRQKMNQVTAVWESYRRDDLNVPDGYERPRGSDSGGRPQPLPGETNKT”, for which the “soluble on expression in E. coli” value was “not soluble”.

In the case of “MSQFGGGKPPGQWHRPAAPGGAPQLSGFSAVNFGGVPMVGMGVPMGMVNQAAFSSQGVLGMQGIMGAVPQQSLPQQQPNFQQQNSLQQGTNMQQNSGAKNQRTFVGVVTKMLDTYGFVDDDVFFQHSVIRGSHPRVGDKVMVEANYNPSMPFKWNAYRIQLLNAATQQEPARQAPQQQQMHQPQRGGQESQRWGAAPASGTSDRADRNGGARGNDSPLHRSSAARRHSPPPRRASPPRRTSSPKRDARPAREIRDSREPREVRRSPPPRRAASPRKASSPSAPAKNDRKRERSPSGSVAPSVRRESASPPRRRARIIPRYECRAQKPALLSPIVSGSVLRHRYSKLYLPSDYVDLSFDWVRSFQLDLSLDLSNPIQFHVFNKDVDFIGEEEIQDLDPEDADHRHQVKVLLLSHAGKSEVVKKAFCLMADGTTDDHQEPQSLLKNLHFLVGARGKETMGIGGSWSPSQDGADPNSATTMIRTAVRTTKSLTGIDLSSVSQWFSMVQIRYYRADKQRIDHVNYLLPDTQSLALDDAQWMLAETKIAEQLKAKLANVDALKIEEDEPPVVMMVEESESVVAAAAAAADVVPEQSIPDVKKEEELQAEEPKVLDNVKESIVLLWAEESDVVADVSMNSTTDADNSEAPAAENGQGPTNWSNLDPKSMKVAELRVELELRGLETKGIKTLLVQRLQTALDTEKAAEASVAARDVEMRDAAENAVKQEGGEENPAAFIAPSIEETKAKTEAEAKKEAEEAEKRKKKEEQLEKEKKEKREALEKHYQLPKDKKILVFPSKSFKSGKFDCKVLSLSSLLDYRHDDNKENQFEVSLFAEAFKEMIERNAAFTIYETLANCGDRDAEKKRRDEAREKPVEPKEPKEPAETTEKAAEGEEKKDEKEEKRDEKKDEKREEKREKVERIDLKSVVANRTVYEAFSLFDSNLCGYLTEKDIEEILYNGEFGISRGQIQKLAKKLSVRDKINYRHLTDVLTDMDGNVRHTPGGADDVVETDDLIRGFGYNLAKSMEPADSGAAVKSSEVSASSDGVVIINGSAVNVVQKMKLLKQVEKERDEAKSTVSEQLSLIEQLREAKAEIDKKKKDIDSHYHKSNKKLNETSAQLKSTQDENSALKQALQDCKRHADRIFSVVEKVMPPPPKKEEKSKKDEKEKTDKKDDKVSEKSAEKSTEEPSQEVPASAEQAAEPSTEAEPIVIDESEDKDAEVVEESKE”, the “soluble on expression in E. coli” value is “not soluble”.

As for “MGSDKIHHHHHHMNILFINSIGRNKFGGGEKWMVNAAKGLTDRGHNVVLASKRNSRLLDYAAGSGVRTEVMEIRGDFSPLATLKIAAWMKRHQTDILICNLNKDVRVAGLAARLVGRPVVLARHGMLLCSKKWKHKLSLTRLTDGIVTNSRTIREAYAGYGWFSENFVKVIYNGLTIPAEVTAFDFASRYPGKKIIYSAGRLSKQKGFEYLIDAAAMLKRKRDDLLFAISGEGKLEIELKNRVAALGLKGSFVFLGFTPDIYPFLKGCDLFVLASLFEGMPNVVMEAMAMQKPVIATDVNGARELMGASPESLVCDTGLIIPPKNPAAIAEAIEQIIDNPALLEAYGKAGHQRVETHFTVPIMIDNLEKHLQSKLAEKAGRC”, the “soluble on expression in E. coli” value was “not soluble”.

“MGSDKIHHHHHHMEPAGVYAKNVQIDRELSQRLHGALTCGKEELFQVVADPAPDVIRAALRNPAMDENHLLVLLGRRDLGEDLVAAIGRHDAVAESHKLKAALVRNPATPAQLVMSLLPHLYLFELVDLCLLAGVTPDQRVAAERAVIQRLSTTPLGNKITLARRATASILDALLKESDVRVVESCLTNPRLKEGSVFQLVSSSRATGDVIAAVARHQCWSNRPNLKAAMLKNPNTPTSLFSTLLASAPTMEVRNLAASGRLGTERKRLAAQELKRRGC”: the “soluble on expression in E. coli” value is “not soluble”.

For “MTKETTQHRSGERIARFADIEVLSYRADLFGTLTPKQRMLCYHLSEAALRGRDITTIQNCRYNLWVRSLMERIYTHLSKSERTDDFALLEEYLFCIWFANGIHHHYSGAKFIARFSPGFLRAALREAGVELEPEEQVLLERVLYDTDFLPKQTEQSGEEDIIKASSVNFYAPGITRAEAESHYKNLIEALPENEKSCPPSFGLNTRLIRSTSGELKDEVCCIDGLYGPAIEAVVASLEAAIPYTENEEQAACIRLLCDYYRTGDIRLYDRFCIRWVENNRTRIDFINGFTEVYADPIGIHGSWEGLVHMQDEEAGRRTRIISEHAGWFEAHSPIDARFRKKNPHGISATVVNVLTIAGDSYPATPIGINLPNADWIRAEHGSKSVTIDNITDAYNHAARGTGLYEEFIPDEEVRRHVELHADLTDSLHTDLHECLGHGSGQLLPGVPGDALGEHASTLEETRADLFALYFLADPKMIELGLLTDPDAYKANYYKYMLNGLMTQLVRIKRGEEIEEAHMRNRALIARYVLEHAERPGAMSLVCEEGKTALVIKDYEAVRAIIAGLLTEVQRIKSEGDYTAGKALVERYAVHVDPLLHEEVLTRYAKLDIAPYKGFVNPRLRPVYNSEGRLTDATIEYTEGYAEQMLRYSAEYSFLPTDSPLLQEARRLRSHLRRAMDGVLSASMREKGLHYGINFGVTREHLLRLARTADASAPLADYLWRRDVRETKILATMIFPAEELTHEQATRLLREADNVELREQLTANLLERMPEAIRSIGRWIESKETTPDMMTGVLTLAARLFTRGIFPEDVPAEKLLTLAILHLSDEEQKAELRRASALLLKRYGRGSAERTKKVLCLLPESSQDTAPVLYELCEDIRFELDFYPKDE”, the “soluble on expression in E. coli” value was “not soluble”.

With “MFGLPMYNVWRAEQAGKAEFSKAEQNRRIKIEEAKANLEAEKLNAKAEIERAKGAAEAIRIENNSLTPTYIQYLWVRQQGSLNDKTVIYIPTEANLPLLEAGRTAGGLKRAECPTE”, the “soluble on expression in E. coli” value was “not soluble”.

On to “MGSDKIHHHHHHMTNLNYCRPLSLTTNRCLMNKELETLILSAVDLPTIPLVATKVIEMIEQEDVTIEKIAQTVSADPAVAARILKLSNSAYYGCQRQINTLSGAIMLLGFRTLKSLVVAASLKQICKRFGLTEKMLWEHAVGAAIAARIISANGKFINEETAFLAGLFHDIGKTIMNDLDPSKFQQVMMRCYNEGLPFEEVERSIYSFSHAEVGALVIRKWNFPEALSTAVMNHHDFPNPTLTDQYDLFLTATTCLADKFCKKLGIGERHPDEELDLAKTQEAHLLGYTPETILRDVDQFAQTFEENKSFFIND”, for which the “soluble on expression in E. coli” value is “not soluble”.

As to “PDSAVVRIHSSSGTTGKPVIIPYTRNDVDTWAELMMRCYMLAGLTNQDRIQITPGYGLWTAGIGFQLGAERLGAMAIPTGPGNTEKQLEMLVDLKTTALASTSSYALLLAEEIEKRGLKDRIHLRTGVIGSERWSEKMRSRIENELGIETFDIYGLTEIYGPGIALDCSYHEGMHYW”, the “soluble on expression in E. coli” value is on record as “not soluble”.

Turning to “MNEAEQELYEALVAICQTSGFLLLEELPTDLPDQPFVYLGDSKELPKPTKSAILGEIELIMHVYGALSERQQISTIKGTILRQATSNLKRTAHFNWGIKHQEVKAQMVKDTKQMKKTIWHAVLPLHMQFY”, the “soluble on expression in E. coli” value is listed as “not soluble”.

Turning to “MGSDKIHHHHHHMTGSNKVIISCAVTGSIHTPTMTPYLPITSTEIANAATGAIDAGAAIVHLHARHPDDGRPDQTVGAFRPFIEHIKAHTDGIINLTTGGAPTMSVEERLQPALHLKPEIASLNMGSMNFGLFPMLNRYKEFKHEWERHYLEGTRDLVFRNTFKDIEYVLSSCTGNDTRFEFECYDTAHLYNLAHFLDRKLVTPPLFVQTVFGILGGIGSHADDVAHMKRTADRLFGSNYVWSVLGAGRAQMPVASIAAAQGGNVRVGIEDSIWNGPGQLAKANSDQVRRVRQILEGMGLAIATPDEARTLLHLKGRNNVAF”, the “soluble on expression in E. coli” value was “not soluble”.
